Results from article doi:10.1101/2023.05.25.542057 (bioRxiv, 2023).

Target: the molecule itself
Test: SEC-SAXS

B1: CDAN1-interacting nuclease 1 (CDIN1), full-length, recombinant from bacteria (natural protein)
chain: MILTKAQYDEIAQCLVSVPPTRQSLRKLKQRFPSQSQATLLSIFSQEYQKHIKRTHAKHHTSEAIESYYQRYLNGVVKNGAAPVLLDLANEVDYAPSLMARLILERFLQEHEETPPSKSIINSMLRDPSQIPDGVLANQVYQCIVNDCCYGPLVDCIKHAIGHEHEVLLRDLLLEKNLSFLDEDQLRAKGYDKTPDFILQVPVAVEGHIIHWIESKASFGDECSHHAYLHDQFWSYWNRFGPGLVIYWYGFIQELDCNRERGILLKACFPTNIVTLCHSIA
stoichiometry N: 2
